{
  "source": "patent US20220088057",
  "system": "GST-fusion SMAD3 protein (Sigma-Aldrich Co. LLC.)",
  "data": [
    {"substance": "His-fusion NEK6 protein (Eurofins Scientific SE)", "values": [
      {"measurement": "amount of phosphorylated SMAD3 (Western blot after in vitro kinase reaction of purified proteins with ATP)", "result": "By using NEK6 protein, the amount of phosphorylated SMAD3 was elevated"}
    ]}
  ]
}
